Measured values taken from paper PMC1905944.
Where “and” joins values, the source holds several entries; their conditions need not be identical. Identical values can stand only once.

How the values were obtained:
[1] = molecular target: full-length HIV-1 WT integrase (HIV-1); assay: cross-linking + SEC; covalent IN oligomers made by chemical cross-linking and separated by size-exclusion chromatography, as previously described [10]; dimers and tetramers recovered
[2] = molecular target: full-length HIV-1 WT integrase (HIV-1); assay: cross-linking; IN (5 pmol, 0.5 uM) with the 5'-radiolabelled 38-bp PalA/PalB duplex (1 pmol, 0.1 uM; HIV-1 LTR-LTR junction) and AHDAP 300 uM, 0.05% NP40, 10 mM DTT, 20 mM HEPES pH 7.5, 37 C in the dark, 0 to 60 min; SDS-PAGE and autoradiography; IN oligomers seen bound to DNA

full-length HIV-1 WT integrase (enzyme)
stoichiometry N [1]: 2 and 4
stoichiometry N [2]: 2 and 4
